{"source": "paper doi:10.64898/2025.12.20.695652", "about": "(bioRxiv, 2025)", "biological_target": "N237_S47D with C-terminal human Fc tag", "assay": "BLI"}
{"substance": "Nipah virus attachment glycoprotein G receptor-binding domain (from UniProt Q9IH62 176-602) (domain or fragment)", "values": [{"measurement": "Kd", "result": 3.8, "unit": "nM"}]}
